Assay results taken from patent US11690918B2, “Pyrrolobenzodiazepine-anti-CD22 antibody conjugates” (ADC THERAPEUTICS S.A., priority 2012, dated 2023).

Legend:
SU-DHL-1 cells = assay: In vitro cytotoxicity of ADCs, SU-DHL-1 (CD22 -ve control); format: cell-based; conditions: 4 days incubation, Alamar Blue
Description: (§1) WSU-DLCL2 and SU-DHL-1 cells were from the Leibniz Institute DSMZ-German Collection of Microorganisms and Cell Cultures. Ramos and Daudi cells were from the American Type Culture Collection. Cell culture medium was RPMI 1640 supplemented with L-Glutamine and 10% FBS. Cells were grown at 37° C., 5% CO2, in a humidified incubator.
(§2) The concentration and viability of cultures of suspended cells (at up to 1×10^6/ml) were determined by mixing 1:1 with Trypan blue and counting clear (live)/blue (dead) cells with a haemocytometer. The cell suspension was diluted to the required seeding density (generally 10^5/ml) and dispensed into 96-well flat bottomed plates. For Alamar blue assay, 100 μl/well was dispensed in black-well plates. […] After incubation for 4 days, cell viability was measured by either Alamar blue or MTS assay.
(§3) AlamarBlue® (Invitrogen, catalogue number DAL1025) was dispensed (20 μl per well) into each well and incubated for 4 hours at 37° C. in the CO2-gassed incubator. Well fluorescence was measured at excitation 570 nm, emission 585 nm. Cell survival (%) was calculated from the ratio of mean fluorescence in the 4 ADC-treated wells compared to the mean fluorescence in the 4 control wells (100%).
(§4) MTS (Promega, catalogue number G5421) was dispensed (20 μl per well) into each well and incubated for 4 hours at 37° C. in the CO2-gassed incubator. Absorbance was measured at 490 nm. […]

Daudi cells = assay: In vitro cytotoxicity of ADCs, Daudi; format: cell-based; conditions: FIG. 1, Alamar Blue
Description: as §1, §2, §3, §4

Ramos cells = assay: In vitro cytotoxicity of ADCs, Ramos; format: cell-based, human; conditions: FIG. 1, Alamar Blue
Description: as §1, §2, §3, §4

WSU-DLCL2 cells = assay: In vitro cytotoxicity of ADCs, WSU-DLCL2; format: cell-based; conditions: FIG. 1, Alamar Blue
Description: as §1, §2, §3, §4

Ramos xenograft = assay: In vivo anti-tumour activity, Ramos mouse xenograft model; conditions: NCr nu/nu mice, single dose 1.0 mg/kg IV, FIG. 3
Description: The CD22+(ve) human Burkitt's lymphoma-derived cell line Ramos was used in a mouse xenograft model to test the in vivo efficacy of the Epratuzumab-A ADC. As a non-CD22-binding control, the anti-HIV gp120 antibody, B12, linked to A was used in the same model.
Procedures: • Set up CR female NCr nu/nu mice with l× Ramos-SPN tumor cells in 0% Matrigel sc in flank. • Cell Injection Volume is 0.1 mL/mouse. • Age at Start Date: 8 to 12 weeks. • Perform a pair match when tumors reach an average size of 100-150 mm^3 and begin treatment. • Body Weight: qd×5 then bi-wk to end • Caliper Measurement: bi-wk to end • Report any adverse reactions or death immediately. • Any individual animal with a single observation of >30% body weight loss or three consecutive measurements of >25% body weight loss will be euthanized. • Any group with two measurements of mean body weight loss of >20% or >10% mortality will stop dosing. The group is not euthanized and recovery is allowed. Within a group with >20% weight loss, individuals hitting the individual body weight loss endpoint will be euthanized. […] Animals are to be monitored individually. […]
For the calculation of group mean tumor volumes the following rule was applied: when an animal exited the study due to tumor size, the final tumor volume recorded for the animal was included with the data used to calculate the mean volume at subsequent time points. […]

B1: Epratuzumab-A: ADC targeted to CD22, generated by conjugating anti-CD22 antibody Epratuzumab to warhead-linker A (conjugate)
VH: QVQLVQSGAEVKKPGSSVKVSCKASGYTFTSYWLHWVRQAPGQGLEWIGYINPRNDYTEYNQNFKDKATITADESTNTAYMELSSLRSEDTAFYFCARRDITTFYWGQG
VL: DIQLTQSPSSLSASVGDRVTMSCKSSQSVLYSANHKNYLAWYQQKPGKAPKLLIYWASTRESGVPSRFSGSGSGTDFTFTISSLQPEDIATYYCHQYLSSWTFGQG
- EC50 SUDHL1 (SU-DHL-1 cells): ~6.776 µg/mL
- cytotoxicity against Daudi cells (Daudi cells): significant cytotoxicity
- cytotoxicity against Ramos cells (Ramos cells): significant cytotoxicity
- cytotoxicity against WSU-DLCL2 cells (WSU-DLCL2 cells): significant cytotoxicity
- anti-tumor activity (mean tumour volume) (Ramos xenograft): most potent anti-tumor activity
